What was measured:
RNase [1] = assay: Ct value depending on temperature of first heating step (Experimental Example 3); format: biochemical; conditions: RNase inhibitor 30 U/rxn, incubation 5 minutes
RNase [2] = assay: Ct value depending on concentration of RNase inhibitor in first heating step (Experimental Example 2); format: biochemical; conditions: first heating 37° C. 5 minutes

B1: RNase inhibitor: RNase inhibitor (Nanohelix RNase Inhibitor) derived from murine lung (protein, UniProt Q91VI7 1-456, looked up)
Ribonuclease inhibitor: MSLDIQCEQLSDARWTELLPLIQQYEVVRLDDCGLTEVRCKDISSAVQANPALTELSLRTNELGDGGVGLVLQGLQNPTCKIQKLSLQNCGLTEAGCGILPGMLRSLSTLRELHLNDNPMGDAGLKLLCEGLQDPQCRLEKLQLEYCNLTATSCEPLASVLRVKADFKELVLSNNDLHEPGVRILCQGLKDSACQLESLKLENCGITAANCKDLCDVVASKASLQELDLSSNKLGNAGIAALCPGLLLPSCKLRTLWLWECDITAEGCKDLCRVLRAKQSLKELSLASNELKDEGARLLCESLLEPGCQLESLWIKTCSLTAASCPYFCSVLTKSRSLLELQMSSNPLGDEGVQELCKALSQPDTVLRELWLGDCDVTNSGCSSLANVLLANRSLRELDLSNNCMGGPGVLQLLESLKQPSCTLQQLVLYDIYWTNEVEEQLRALEEERPSLRIIS
With B1 the “Ct value at first heating temperature of 25° C. to 37° C.” value (RNase [1]) was “constant”, the “Ct value at first heating temperature of 45° C. or higher” value (RNase [1]) was “increased” and the “Ct value as the concentration of the RNase inhibitor increased” value (RNase [2]; 7.5 U/rxn to 45 U/rxn) was “gradually decreased”. For the same molecule, the “Ct value at 52.5 U/rxn” value (RNase [2]; 52.5 U/rxn) was “lower than that at a concentration of 7.5 U/rxn”.
